Data set [1] concerns 562(P4-P3′)336 factor VIII mutant (procofactor).
Data set [2] deals with 336(P4-P3′)562 factor VIII mutant (procofactor).
Data set [3] has as its system 336(P4-P2)562 factor VIII mutant (procofactor).
The test system of data set [4] is 336(P1′-P3′)562 factor VIII mutant (procofactor).
Data set [5] concerns 562(P4-P2)336 factor VIII mutant (procofactor).
Data set [6] addresses T1, human activated protein C (human, UniProt P04070 43-197; P04070 212-461).
T1 construct: also called APC; human APC
As to the kind of experiment: competitive inhibition of APC-catalysed cleavage of WT factor VIIIa A1 subunit by the mutant (0-200 nM); Western blot densitometry, fit to competitive inhibition model with Km 102 nM. The protocol:
Aliquots were taken at various time points (0-20 min) and subjected to SDS-PAGE. […] The amount of the A1336 (nM) generated over time was determined based on the amount of WT A1 substrate, calculated by subtracting the amount of the mutant A1 from the total amount of A1 subunit.
Factor VIII (130 nM) was activated by addition of 10-20 nM thrombin in 20 mM HEPES pH 7.2, 100 mM NaCl, 5 mM CaCl₂, 0.01 % Tween 20, and 100 μg/ml bovine serum albumin (Buffer A) and reactions were run at 37° C. Thrombin was inhibited after 2 min by the addition of 10-20 U/ml hirudin, and the resultant factor VIIIa was reacted with APC (2 or 40 nM) in the presence of 100 μM phospholipid vesicles. Aliquots were removed at the indicated times to assess residual factor VIIIa activity by factor Xa generation assay and proteolysis of subunits by Western blotting.

The target in data set [7] is T1, human activated protein C. Put plainly: cell-based or functional assay.
In data set [8] the target is T1, human activated protein C. As to the kind of experiment: Ki from competitive inhibition of APC cleavage against the literature Km (102 nM) of WT factor VIIIa for APC. As to the method:
The amount of the A1336 (nM) generated over time was determined based on the amount of WT A1 substrate, calculated by subtracting the amount of the mutant A1 from the total amount of A1 subunit.
The rationale for this approach was that if proteinase binding to the mutant were unaffected, then it would efficiently compete with the WT substrate. Furthermore, since the mutant remains essentially uncleaved at the A1 site during a truncated time course, it would serve as an inhibitor of detected cleavage of the WT substrate.

The target of data set [9] is T1, human activated protein C. As to the kind of experiment: cell-based or functional assay. This is another data set of the same source.

T1 sequence (P04070 43-197, chain 1 of 2): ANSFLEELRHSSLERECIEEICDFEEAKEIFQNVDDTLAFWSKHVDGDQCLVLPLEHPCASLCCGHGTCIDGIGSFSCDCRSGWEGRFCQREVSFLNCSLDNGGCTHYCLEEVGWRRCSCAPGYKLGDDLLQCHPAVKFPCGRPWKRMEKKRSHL
T1 sequence (P04070 212-461, chain 2 of 2): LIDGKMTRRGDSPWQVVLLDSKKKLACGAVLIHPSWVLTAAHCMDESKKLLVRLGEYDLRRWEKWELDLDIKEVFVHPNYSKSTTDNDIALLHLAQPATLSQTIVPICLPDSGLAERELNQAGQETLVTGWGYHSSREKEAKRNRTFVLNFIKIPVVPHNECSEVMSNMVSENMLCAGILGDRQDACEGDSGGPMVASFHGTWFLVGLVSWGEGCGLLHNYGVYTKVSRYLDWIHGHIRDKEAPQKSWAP

Consider α-thrombin, for which the “rates of cleavage of factor VIII and the generation of factor VIIIa subunits” value in data set [1], in [2], in [3], in data set [4] and in data set [5] was “indistinguishable from that for WT factor VIII” throughout.

B1: 336(P4-P3′)562 factor VIIIa mutant (other)
chain 1: ATRRYYLGAVELSWDYMQSDLGELPVDARFPPRVPKSFPFNTSVVYKKTLFVEFTVHLFNIAKPRPPWMGLLGPTIQAEVYDTVVITLKNMASHPVSLHAVGVSYWKASEGAEYDDQTSQREKEDDKVFPGGSHTYVWQVLKENGPMASDPLCLTYSYLSHVDLVKDLNSGLIGALLVCREGSLAKEKTQTLHKFILLFAVFDEGKSWHSETKNSLMQDRDAASARAWPKMHTVNGYVNRSLPGLIGCHRKSVYWHVIGMGTTPEVHSIFLEGHTFLVRNHRQASLEISPITFLTAQTLLMDLGQFLLFCHISSHQHDGMEAYVKVDSCPEEVDQRGNQNEEAEDYDDDLTDSEMDVVRFDDDNSPSFIQIR
chain 2: SVAKKHPKTWVHYIAAEEEDWDYAPLVLAPDDRSYKSQYLNNGPQRIGRKYKKVRFMAYTDETFKTREAIQHESGILGPLLYGEVGDTLLIIFKNQASRPYNIYPHGITDVRPLYSRRLPKGVKHLKDFPILPGEIFKYKWTVTVEDGPTKSDPRCLTRYYSSFVNMERDLASGLIGPLLICYKESVDQRGNQIMSDKRNVILFSVFDENRSWYLTENIQRFLPNPAGVQLEDPEFQASNIMHSINGYVFDSLQLSVCLHEVAYWYILSIGAQTDFLSVFFSGYTFKHKMVYEDTLTLFPFSGETVFMSMENPGLWILGCHNSDFRNRGMTALLKVSSCDKNTGDYYEDSYEDISAYLLSKNNAIEPR
chain 3: SFQKKTRHYFIAAVERLWDYGMSSSPHVLRNRAQSGSVPQFKKVVFQEFTDGSFTQPLYRGELNEHLGLLGPYIRAEVEDNIMVTFRNQASRPYSFYSSLISYEEDQRQGAEPRKNFVKPNETKTYFWKVQHHMAPTKDEFDCKAWAYFSDVDLEKDVHSGLIGPLLVCHTNTLNPAHGRQVTVQEFALFFTIFDETKSWYFTENMERNCRAPCNIQMEDPTFKENYRFHAINGYIMDTLPGLVMAQDQRIRWYLLSMGSNENIHSIHFSGHVFTVRKKEEYKMALYNLYPGVFETVEMLPSKAGIWRVECLIGEHLHAGMSTLFLVYSNKCQTPLGMASGHIRDFQITASGQYGQWAPKLARLHYSGSINAWSTKEPFSWIKVDLLAPMIIHGIKTQGARQKFSSLYISQFIIMYSLDGKKWQTYRGNSTGTLMVFFGNVDSSGIKHNIFNPPIIARYIRLHPTHYSIRSTLRMELMGCDLNSCSMPLGMESKAISDAQITASSYFTNMFATWSPSKARLHLQGRSNAWRPQVNNPKEWLQVDFQKTMKVTGVTTQGVKSLLTSMYVKEFLISSSQDGHQWTLFFQNGKVKVFQGNQDSFTPVVNSLDPPLLTRYLRIHPQSWVHQIALRMEVLGCEAQDLY
notes: residues 333-339 replaced by residues 559-565; also called fully substituted P4-P3′ mutant
In data set [6], B1 gave a Ki of 36 nM. Also, the “Inactivation (nM FVIIIa/min/nM APC)” value in data set [7] was 0.8 nM FVIIIa/min/nM APC. Further, the “fold Ki less than the Km for WT substrate” value in data set [8] is about 3 fold.

B2: 336(P4-P2)562 factor VIIIa mutant (other)
chain 1: ATRRYYLGAVELSWDYMQSDLGELPVDARFPPRVPKSFPFNTSVVYKKTLFVEFTVHLFNIAKPRPPWMGLLGPTIQAEVYDTVVITLKNMASHPVSLHAVGVSYWKASEGAEYDDQTSQREKEDDKVFPGGSHTYVWQVLKENGPMASDPLCLTYSYLSHVDLVKDLNSGLIGALLVCREGSLAKEKTQTLHKFILLFAVFDEGKSWHSETKNSLMQDRDAASARAWPKMHTVNGYVNRSLPGLIGCHRKSVYWHVIGMGTTPEVHSIFLEGHTFLVRNHRQASLEISPITFLTAQTLLMDLGQFLLFCHISSHQHDGMEAYVKVDSCPEEVDQRMKNNEEAEDYDDDLTDSEMDVVRFDDDNSPSFIQIR
chain 2: SVAKKHPKTWVHYIAAEEEDWDYAPLVLAPDDRSYKSQYLNNGPQRIGRKYKKVRFMAYTDETFKTREAIQHESGILGPLLYGEVGDTLLIIFKNQASRPYNIYPHGITDVRPLYSRRLPKGVKHLKDFPILPGEIFKYKWTVTVEDGPTKSDPRCLTRYYSSFVNMERDLASGLIGPLLICYKESVDQRGNQIMSDKRNVILFSVFDENRSWYLTENIQRFLPNPAGVQLEDPEFQASNIMHSINGYVFDSLQLSVCLHEVAYWYILSIGAQTDFLSVFFSGYTFKHKMVYEDTLTLFPFSGETVFMSMENPGLWILGCHNSDFRNRGMTALLKVSSCDKNTGDYYEDSYEDISAYLLSKNNAIEPR
chain 3: SFQKKTRHYFIAAVERLWDYGMSSSPHVLRNRAQSGSVPQFKKVVFQEFTDGSFTQPLYRGELNEHLGLLGPYIRAEVEDNIMVTFRNQASRPYSFYSSLISYEEDQRQGAEPRKNFVKPNETKTYFWKVQHHMAPTKDEFDCKAWAYFSDVDLEKDVHSGLIGPLLVCHTNTLNPAHGRQVTVQEFALFFTIFDETKSWYFTENMERNCRAPCNIQMEDPTFKENYRFHAINGYIMDTLPGLVMAQDQRIRWYLLSMGSNENIHSIHFSGHVFTVRKKEEYKMALYNLYPGVFETVEMLPSKAGIWRVECLIGEHLHAGMSTLFLVYSNKCQTPLGMASGHIRDFQITASGQYGQWAPKLARLHYSGSINAWSTKEPFSWIKVDLLAPMIIHGIKTQGARQKFSSLYISQFIIMYSLDGKKWQTYRGNSTGTLMVFFGNVDSSGIKHNIFNPPIIARYIRLHPTHYSIRSTLRMELMGCDLNSCSMPLGMESKAISDAQITASSYFTNMFATWSPSKARLHLQGRSNAWRPQVNNPKEWLQVDFQKTMKVTGVTTQGVKSLLTSMYVKEFLISSSQDGHQWTLFFQNGKVKVFQGNQDSFTPVVNSLDPPLLTRYLRIHPQSWVHQIALRMEVLGCEAQDLY
For the molecule B2, in data set [9], the “fold reduction of inactivation rate compared to WT factor VIIIa” value was 6 to 11 fold. Further, in data set [7], the “Inactivation (nM FVIIIa/min/nM APC)” value was 0.5 nM FVIIIa/min/nM APC.

The values are drawn from US20090118185A1 (UNIVERSITY OF ROCHESTER, published 2009).
